Laboratory results taken from patent publication US20250027090, “MIRROR-IMAGE SELECTION OF L-NUCLEIC ACID APTAMERS” (Tsinghua University, published 2025).

Target: thrombin (native human beta-thrombin) (Homo sapiens, UniProt P00734;P00734 P00734:328-363,P00734:364-622)
Experiment: ITC; physiological buffer pH 7.4, 25 C

B1: D-6 aptamer (ssDNA)
DNA: CGGATCCAGTTACGGACTGAACAGAAGGGTGGTGTGGTTGGACTGTTCATTCAGTAAGCTTCGG
Work on B1 yielded a Kd of 27 nM.
